Residue numbers refer to the chain shown, from its start. Read-outs that look alike come from different tables or passages of the source. Each block holds one binder with its values, some of them ahead of it. No end group written: not given here. *: point of attachment. Biotin = O=C1N[C@H]2[C@H](CS[C@H]2CCCCC(=O)*)N1
Columns and labels:
[1] = biological target: T1, apelin-13-biotin (…-biotin) (C-terminal biotin); test: SPR (Biacore), apelin-13-biotin on streptavidin chip
T1 construct: also called APL13-Biotin
Experimental: (§1) Anti-apelin mAbs at four different concentrations (12.5 nM, 25 nM, 50 nM and 100 nM) were captured on the chip surface. The on- and off-rate for antibody-antigen binding were measured, curve fitted and calculated.

[2] = biological target: T2, pyr-apelin-13-biotin (pE-RPRLSHKGPMPF-biotin) (N-terminal pyroglutamate (pE); C-terminal biotin); test: SPR (Biacore), pyr-apelin-13-biotin on streptavidin chip
T2 construct: also called pyrAPL13-Biotin
T2 peptide: ERPRLSHKGPMPF
Experimental: as §1

Biotin-APL17 = biological target: T3, Biotin-APL17; test: ELISA, peptide on neutravidin plate, mAb 200 ng/ml, A405
T3 peptide: Biotin-KFRRQRPRLSHKGPMPF
Experimental: (§2) FIGS. 1A-1C show binding of anti-apelin mAbs to various biotinylated apelin peptides measured by ELISA. Biotinylated apelin peptides were immobilized on ELISA plates coated with neutravidin and purified recombinant rabbit anti-apelin mAbs were added for binding to the peptides on the plates. The binding was detected by adding a goat anti-rabbit IgG Fc-conjugated to alkaline phosphatase and PNPP substrate, and measured as the absorbance at 405 nm.
(§3) For the binding assay, neutravidin in carbonate coating buffer was coated on high binding ELISA plates at 1 μg/ml overnight. Peptides were added at 4 μg/ml after the plates were blocked with 1% BSA in TBS. After incubation of the plates at room temperature for 60 minutes, the plates were washed and then purified recombinant rabbit antibodies were added at 200 ng/ml. Following rabbit antibody binding to the peptides on the plates at room temperature for 90 minutes, goat anti-rabbit IgG Fc-conjugated to alkaline phosphatase was added, and antibody-antigen binding was detected by adding PNPP substrate and reading absorbance of ELISA plates at 405 nm. Each mAb was assayed in duplicate.

APL17-Biotin = biological target: T4, APL17-Biotin; test: as above
T4 peptide: KFRRQRPRLSHKGPMPF-biotin
Experimental: as §2, §3

1-4 [3] = biological target: T5, 1-4; test: competition ELISA, captured mAb, peptide competes with apelin-13-biotin, A405
T5 construct: also called apelin peptide 1-4 (QRPR)
T5 peptide: QRPR

[4] = biological target: T6, apelin 17 (competition peptide 1-17, KFRRQRPRLSHKGPMPF); test: as above
T6 peptide: KFRRQRPRLSHKGPMPF

[5] = biological target: T7, apelin peptide 1-12 (QRPRLSHKGPMP); test: as above
T7 peptide: QRPRLSHKGPMP

[6] = biological target: T8, apelin peptide 2-13 (RPRLSHKGPMPF); test: as above
T8 peptide: RPRLSHKGPMPF

[7] = biological target: T9, apelin peptide 1-11 (QRPRLSHKGPM); test: as above
T9 peptide: QRPRLSHKGPM

[8] = biological target: T10, apelin peptide 1-10 (QRPRLSHKGP); test: as above
T10 peptide: QRPRLSHKGP

[9] = biological target: T11, apelin peptide 1-9 (QRPRLSHKG); test: as above
T11 peptide: QRPRLSHKG

[10] = biological target: T12, apelin peptide 1-8 (QRPRLSHK); test: as above
T12 peptide: QRPRLSHK

[11] = biological target: T13, apelin peptide 1-7 (QRPRLSH); test: as above
T13 peptide: QRPRLSH

[12] = biological target: T14, apelin peptide 1-6 (QRPRLS); test: as above
T14 peptide: QRPRLS

[13] = biological target: T15, apelin peptide 1-5 (QRPRL); test: as above
T15 peptide: QRPRL

1-4 [14] = biological target: T5, 1-4; test: as above
[15] = biological target: T6, apelin 17 (competition peptide 1-17, …); test: as above
[16] = biological target: T7, apelin peptide 1-12 (QRPRLSHKGPMP); test: as above
[17] = biological target: T8, apelin peptide 2-13 (RPRLSHKGPMPF); test: as above
[18] = biological target: T9, apelin peptide 1-11 (QRPRLSHKGPM); test: as above
[19] = biological target: T10, apelin peptide 1-10 (QRPRLSHKGP); test: as above
[20] = biological target: T11, apelin peptide 1-9 (QRPRLSHKG); test: as above
[21] = biological target: T12, apelin peptide 1-8 (QRPRLSHK); test: as above
[22] = biological target: T13, apelin peptide 1-7 (QRPRLSH); test: as above
[23] = biological target: T14, apelin peptide 1-6 (QRPRLS); test: as above
[24] = biological target: T15, apelin peptide 1-5 (QRPRL); test: as above
[25] = biological target: T16, alanine scanning peptide 1A (ARPRL); test: as above
T16 peptide: ARPRL
Experimental: (§4) Each peptide or control sample was assayed in duplicate for a given mAb.

[26] = biological target: T17, alanine scanning peptide 2A (QAPRL); test: as above
T17 peptide: QAPRL
Experimental: as §4

[27] = biological target: T18, alanine scanning peptide 3A (QRARL); test: as above
T18 peptide: QRARL
Experimental: as §4

[28] = biological target: T19, alanine scanning peptide 4A (QRPAL); test: as above
T19 peptide: QRPAL
Experimental: as §4

[29] = biological target: T20, alanine scanning peptide 5A (QRPRA); test: as above
T20 peptide: QRPRA
Experimental: as §4

1-4 [30] = biological target: T5, 1-4; test: as above
[31] = biological target: T6, apelin 17 (competition peptide 1-17, …); test: as above
[32] = biological target: T7, apelin peptide 1-12 (QRPRLSHKGPMP); test: as above
[33] = biological target: T8, apelin peptide 2-13 (RPRLSHKGPMPF); test: as above
[34] = biological target: T9, apelin peptide 1-11 (QRPRLSHKGPM); test: as above
[35] = biological target: T10, apelin peptide 1-10 (QRPRLSHKGP); test: as above
[36] = biological target: T11, apelin peptide 1-9 (QRPRLSHKG); test: as above
[37] = biological target: T12, apelin peptide 1-8 (QRPRLSHK); test: as above
[38] = biological target: T13, apelin peptide 1-7 (QRPRLSH); test: as above
[39] = biological target: T14, apelin peptide 1-6 (QRPRLS); test: as above
[40] = biological target: T15, apelin peptide 1-5 (QRPRL); test: as above

Kd [1]: 48.9 pM | Kd [2]: 0.154 pM | binding result (Biotin-APL17): no binding (tested: 200 ng/ml) | binding result (APL17-Biotin): no binding (tested: 200 ng/ml) | binding result [5]: binds | binding result [7]: binds | binding result [8]: binds | binding result [9]: binds | binding result [10]: binds | binding result [11]: binds | binding result [12]: binds | binding result [13]: binds
B1: anti-apelin mAb C1 (antibody, V domains shown)
VH: QSLEESGGRLVTPGGSLTLTCTVSGFSLSSYAMDWVRQAPGKGLEWIGVIAPNGATYYPTWARGRFTISKTSTTVDLKMTSLTAADTATYFCATYPIDAGANIWGPGTLVTVSS
VL: DPVLTQTPSSVSAAVGGTVTIGCQSSESVDNNNQLSWYQQKSGQPPKRLMYYVSTLDSGVPSRFKGSGSGTHFTLTISGVQCYDAATYYCQGGYISNLYPFGGGTEVVVK
notes: recombinant rabbit IgG made in HEK293 cells
binding result (1-4 [3]): no binding (tested: peptide concentration not stated) | binding result [4]: no binding (tested: peptide concentration not stated) | binding result [6]: no binding (tested: peptide concentration not stated)

Kd [1]: 5.96 pM | Kd [2]: 0.513 pM | binding result (Biotin-APL17): no binding (tested: 200 ng/ml) | binding result (APL17-Biotin): no binding (tested: 200 ng/ml) | binding result [16]: binds | binding result [18]: binds | binding result [19]: binds | binding result [20]: binds | binding result [21]: binds | binding result [22]: binds | binding result [23]: binds | binding result [24]: binds
B2: anti-apelin mAb C6 (antibody, V domains shown)
VH: QSLEESGGRLVKPDETLTLTCTVSGIDLSNYAMDWVRQAPGKGLEWIGVIAPNRRTYYPTWARGRFTISKTSSTTVDLKMTSLTTEDTATYFCATYPIEPGANIWGPGTLVTVSS
VL: B1 VL with S10P, A14P, N31Y, S42P, H72Q, G79D, V80L, Q81E, Y83D, L98I
notes: as for B1
binding result (1-4 [14]): no binding (tested: peptide concentration not stated) | binding result [15]: no binding (tested: peptide concentration not stated) | binding result [17]: no binding (tested: peptide concentration not stated) | binding result [25]: no binding (tested: peptide concentration not stated) | binding result [26]: no binding (tested: peptide concentration not stated) | binding result [27]: no binding (tested: peptide concentration not stated) | binding result [28]: no binding (tested: peptide concentration not stated) | binding result [29]: no binding (tested: peptide concentration not stated)

Kd [1]: 3.14 pM | Kd [2]: 0.326 pM | binding result (Biotin-APL17): no binding (tested: 200 ng/ml) | binding result (APL17-Biotin): no binding (tested: 200 ng/ml) | binding result [32]: binds | binding result [34]: binds | binding result [35]: binds | binding result [36]: binds | binding result [37]: binds | binding result [38]: binds | binding result [39]: binds | binding result [40]: binds
B3: anti-apelin mAb C7 (antibody, V domains shown)
VH: B2 VH with V11A, S29N, N30S, Y31H, N53D, R54T, P59A, T75S, D77E, T95A
VL: DPVLTQTPSPVSAPVGGTVTIGCQASESVDYNNQLSWYQQKPGQAPKRLMYYVSTLDSGVPSRFKGSGSGTQFTLTISDLECDDAATYYCQGGYPYNIYPFGGGTEVVVK
notes: as for B1
binding result (1-4 [30]): no binding (tested: peptide concentration not stated) | binding result [31]: no binding (tested: peptide concentration not stated) | binding result [33]: no binding (tested: peptide concentration not stated) | binding result [25]: no binding (tested: peptide concentration not stated) | binding result [26]: no binding (tested: peptide concentration not stated) | binding result [27]: no binding (tested: peptide concentration not stated) | binding result [28]: no binding (tested: peptide concentration not stated) | binding result [29]: no binding (tested: peptide concentration not stated)
